Results as given in patent CN115433279A (SUZHOU DIMA BIOTECHNOLOGY CO LTD, dated 2022).

B1: 命名为1E5的兔重组单克隆抗体 (antibody, V domains shown)
VH: QSVKESAGGLFKPTDTLTLTCTASGFTISSNAITWVRQAPGNGLEWIGGIDSSGSAYYASWAKSRSTITRNTNLNTVTLKMTSLTAADTATYFCAGGSNIWGPGTLVTVSS
VL: DIVMTQTPSSVSAAVGGTVTIKCQASESIYSYLSWYQQKPGQPPKLLIYLASTLDSGVPSRFKGSGSGTQFTLTISDLECADAATYYCQSSYFSSGSSYGNTFGGGTEVVVK
B2: 命名为1E4的兔重组单克隆抗体 (antibody, V domains shown)
VH: QSLEESGGRLVTPGTPLTLTCTASGFSLSSYYMSWVRQAPGKGLEYIGIIYDSGSTWYANWAKGRFTISKTSTAVYLEITSPTTEDTATYFCARTGSIYYIWLDLWGQGTLVTVSS
VL: AAVLTQTPSPVSAAVGGSVTISCQSSQTIYKNNDLAWYQQKPGQPPKLLIYEASKLASGVPSRFSGSGSGTQFTLTISGVQCDDAATYYCLGGYDDDDDNTFGGGTEVVVK
notes: In the later assays it was recombinant antibody purified from 293 cells
B3: 命名为5D3的兔重组单克隆抗体 (antibody, V domains shown)
VH: GGAEGGLVKPGGSLELCCKASGFSLSNLRVNWVRQAPGKGLEWIGCIISDSSGTTSYASWVNGRFTLSRDIDQNTGCLQLNSLTVADTAMYYCASRVNITSYDLSLWGQGTLVTVSS
VL: AAVLTQTPSPVSAAVGGTVSISCQSSKSVYNNKWLSWFQQKPGQPPKLLIYSASTLASGVPSRFSGSGSGTDFTLTISDVQCDDAATYYCAGGYSGSSDTYSFGGGTEVVVK
B4: 命名为1E6的兔重组单克隆抗体 (antibody, V domains shown)
VH: QSVEESGGRLVTPGTPLTLACTVSGFDISSYSMSWVRQAPGKGLEWIGSGIIGGSTYYASWAKGRFTISKTSTTVDLKITSPTTEDTATYFCARFAGTSSTDYYDLWGQGTLVTVSS
VL: TQTPSSVEAAVGGTVTIKCQASQSIDSYLAWYQQKPGQPPKLLIYDTSTLASGVSSRFKGSGSGTQFTLTISDLECADAATYYCQNYWIITTFGFGGGTEVVVK

These binders were tested against CD123 FC融合标签蛋白 (UniProt P26951) (assay: indirect ELISA, CD123 protein coated at 1 μg/ml, B cell clone supernatant).

| OD450 | Binder |
| --- | --- |
| 1.87 OD450 | B1 |
| 2.1 OD450 | B2 |
| 1.77 OD450 | B3 |
| 1.53 OD450 | B4 |

These binders were tested against T1, CD123全长蛋白 (细胞膜上CD123) (UniProt P26951 19-378, limits assumed) (assay: flow cytometry on Raji cells, antibody titration).
T1 construct: whole, on cells; also called 天然细胞表面CD123蛋白
T1 sequence (P26951 19-378 limits assumed): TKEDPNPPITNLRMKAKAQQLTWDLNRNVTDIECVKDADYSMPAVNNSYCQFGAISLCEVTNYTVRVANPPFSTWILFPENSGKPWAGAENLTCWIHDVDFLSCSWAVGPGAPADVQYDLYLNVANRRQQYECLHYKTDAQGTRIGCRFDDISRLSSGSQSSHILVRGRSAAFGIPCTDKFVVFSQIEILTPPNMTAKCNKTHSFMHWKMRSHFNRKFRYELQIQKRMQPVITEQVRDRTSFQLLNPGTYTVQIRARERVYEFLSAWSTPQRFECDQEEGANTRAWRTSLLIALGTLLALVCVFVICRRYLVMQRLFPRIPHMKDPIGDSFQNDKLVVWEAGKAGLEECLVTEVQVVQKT

| binding result | Binder |
| --- | --- |
| binds | B1 |
| binds | B2 |
